Some results are limits rather than exact numbers.

Assay [1] addresses leukocyte interferon (Sigma Product No. I-2396). In words: cell-based or functional assay.
Assay [2] concerns the target lymphoblastoid interferon (NIH reference Ga23-901-532).

B1: murine anti-human IFN-α monoclonal antibody 9F3 (antibody, IgG2, V domains shown)
VL: DIVLTQSPASLAVSLGQRATISCRASQSVSTSSYSYMHWYQQKPGQPPKVLISYASNLESGVPARFSGSGSGTDFTLNIHPVEEGDTATYFCQHSWGIPRTFGAGTKLELRRAV
VH: EVQLQQSGPELVKPGASVKISCKTSGYTFTEYIIHWVKQGHGRSLEWIGSINPDYDITNYNQRFKGKATLTLDKSSRTAYLELRSLTSEDSAVYYCASWISDFFDYWGQGTTLMVSAAS
Take B1: the neutralization of anti-viral activity in assay [1] is greater than 95%. In assay [2], this molecule displayed an EC50 (read off the bars); loss of protection by 3 IU/ml lymphoblastoid interferon, cytopathic effect of 3 ng/mL and an EC50 (read off the bars); loss of protection by 10 IU/ml lymphoblastoid interferon, cytopathic effect of 5 ng/mL.

The values are drawn from patent US20070059309A1.
